From patent US20230129258A1 (Bicycle, published 2023) come the findings set out here.

Starred links: 1 amine or outer side, 2 acyl side, 3 side chain; linkers in the order of their positions; H or OH if unused. Positions of bridges follow the written chain, without caps; N, C: chain ends. Non-standard residues stand in square brackets, D forms with d. Chains are numbered I, II in the order given. No end group written: not given here. dLys(PYA) = D-lysine Nε-acylated with 4-pentynoic acid, clicked (triazole) to the linker azide, O=C(CCc1cn([*:3])nn1)NCCCC[C@@H](N[*:1])C(=O)[*:2]; TATA = O=C(CC[*:1])N1CN(C(=O)CC[*:2])CN(C(=O)CC[*:3])C1; 1Nal = N[C@@H](Cc1cccc2ccccc12)C(=O)O; Hyp = O=C(O)[C@@H]1C[C@@H](O)CN1; hArg = N=C(N)NCCCC[C@H](N)C(=O)O; tBuAla = CC(C)(C)C[C@H](N)C(=O)O; Nle = CCCC[C@H](N)C(=O)O

In experiment [1] the target is T1, Nectin-1 (2880-N1, R&D Systems) (UniProt Q15223 31-334, limits assumed, biotinylated).
T1 sequence (looked up): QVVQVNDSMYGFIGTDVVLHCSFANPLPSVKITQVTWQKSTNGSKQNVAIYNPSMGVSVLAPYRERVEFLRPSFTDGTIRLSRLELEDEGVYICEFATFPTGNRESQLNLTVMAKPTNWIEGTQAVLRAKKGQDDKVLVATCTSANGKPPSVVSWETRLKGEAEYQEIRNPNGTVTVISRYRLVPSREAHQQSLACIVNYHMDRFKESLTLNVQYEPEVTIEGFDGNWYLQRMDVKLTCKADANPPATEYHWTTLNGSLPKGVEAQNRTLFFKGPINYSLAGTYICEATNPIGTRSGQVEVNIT
Put plainly: SPR, biotinylated target on streptavidin surface.

Experiment [2] deals with T2, Nectin-like-4 (4164-S4, R&D Systems) (UniProt Q8NFZ8 21-324, biotinylated).
T2 sequence (looked up): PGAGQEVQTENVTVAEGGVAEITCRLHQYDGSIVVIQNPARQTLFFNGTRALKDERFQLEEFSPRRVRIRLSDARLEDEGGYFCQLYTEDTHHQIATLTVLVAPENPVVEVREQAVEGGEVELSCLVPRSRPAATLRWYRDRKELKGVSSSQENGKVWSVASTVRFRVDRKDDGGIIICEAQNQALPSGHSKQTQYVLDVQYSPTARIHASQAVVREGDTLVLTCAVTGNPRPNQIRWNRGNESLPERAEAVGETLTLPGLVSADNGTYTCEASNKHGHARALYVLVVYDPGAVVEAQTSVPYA
Nature of the experiment: SPR, biotinylated target on streptavidin surface. For orientation: Surface plasmon resonance follows binding to a sensor surface in real time, without labels.

Experiment [3] concerns the target Nectin-3 (3064-N3, R&D Systems) (UniProt Q9NQS3 58-404, limits assumed, biotinylated). Nature of the experiment: SPR, biotinylated target on streptavidin surface.
For experiment [4], the target named is T3, Nectin-like-3 (4290-S4-050, R&D Systems) (UniProt Q8N3J6 25-367, biotinylated).
T3 sequence (looked up): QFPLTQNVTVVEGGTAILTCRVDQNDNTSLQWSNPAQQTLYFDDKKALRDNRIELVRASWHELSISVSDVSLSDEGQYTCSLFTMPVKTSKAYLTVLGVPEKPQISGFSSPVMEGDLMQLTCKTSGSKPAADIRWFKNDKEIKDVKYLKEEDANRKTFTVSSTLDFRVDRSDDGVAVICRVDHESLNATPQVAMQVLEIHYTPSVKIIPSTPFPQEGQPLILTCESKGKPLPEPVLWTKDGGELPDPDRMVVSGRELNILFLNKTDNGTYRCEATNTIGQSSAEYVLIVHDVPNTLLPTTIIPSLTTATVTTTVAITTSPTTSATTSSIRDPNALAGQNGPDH
Put plainly: SPR, biotinylated target on streptavidin surface.

The target in experiment [5] is T4, Nectin-like-2 (3519-S4-050, R&D Systems) (UniProt Q9BY67 45-374, biotinylated).
T4 sequence (looked up): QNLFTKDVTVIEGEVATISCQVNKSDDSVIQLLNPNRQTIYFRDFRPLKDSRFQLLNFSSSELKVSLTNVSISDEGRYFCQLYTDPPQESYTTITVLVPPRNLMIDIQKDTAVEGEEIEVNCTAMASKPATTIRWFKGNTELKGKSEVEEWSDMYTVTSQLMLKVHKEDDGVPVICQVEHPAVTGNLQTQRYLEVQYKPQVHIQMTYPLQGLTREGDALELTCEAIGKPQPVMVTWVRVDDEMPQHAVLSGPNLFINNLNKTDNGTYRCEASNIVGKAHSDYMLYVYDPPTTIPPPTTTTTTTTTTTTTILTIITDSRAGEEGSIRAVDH
Put plainly: SPR, biotinylated target on streptavidin surface.

The target of experiment [6] is T5, Nectin-2 (2229-N2, R&D Systems) (UniProt Q92692 32-360, limits assumed, biotinylated).
T5 sequence (looked up): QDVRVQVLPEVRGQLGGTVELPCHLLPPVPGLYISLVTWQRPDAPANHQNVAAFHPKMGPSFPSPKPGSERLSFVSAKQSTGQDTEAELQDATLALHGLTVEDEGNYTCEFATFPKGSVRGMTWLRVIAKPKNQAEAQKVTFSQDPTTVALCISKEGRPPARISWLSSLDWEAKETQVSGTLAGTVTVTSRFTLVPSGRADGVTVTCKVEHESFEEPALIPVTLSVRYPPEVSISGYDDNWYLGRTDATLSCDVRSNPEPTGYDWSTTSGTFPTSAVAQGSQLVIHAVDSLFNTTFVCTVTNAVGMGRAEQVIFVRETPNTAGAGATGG
Put plainly: SPR, biotinylated target on streptavidin surface.

The target of experiment [7] is T6, human Nectin-4 extracellular domain (human, UniProt Q96NY8 32-349, biotinylated where captured on the streptavidin chip).
T6 construct: extracellular domain; also called Nectin-4 (human); Biotinylated - Nectin-4 extracellular domain
T6 sequence (looked up): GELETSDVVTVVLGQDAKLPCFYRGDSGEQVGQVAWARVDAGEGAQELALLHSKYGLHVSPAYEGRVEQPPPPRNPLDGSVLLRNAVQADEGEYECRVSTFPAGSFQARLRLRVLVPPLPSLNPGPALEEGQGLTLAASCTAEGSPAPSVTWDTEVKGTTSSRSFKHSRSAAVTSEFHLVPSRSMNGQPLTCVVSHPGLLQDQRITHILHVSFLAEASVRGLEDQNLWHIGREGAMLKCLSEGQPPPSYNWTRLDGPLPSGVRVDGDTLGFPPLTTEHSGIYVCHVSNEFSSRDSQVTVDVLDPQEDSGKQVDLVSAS
Nature of the experiment: SPR direct binding, biotinylated Nectin-4 ECD on streptavidin chip, 37° C., n = 9.

Experiment [8] has as its target T7, mouse Nectin-4 extracellular domain (mouse, UniProt Q8R007 31-347, biotinylated where captured on the streptavidin chip).
T7 construct: extracellular domain
T7 sequence (looked up): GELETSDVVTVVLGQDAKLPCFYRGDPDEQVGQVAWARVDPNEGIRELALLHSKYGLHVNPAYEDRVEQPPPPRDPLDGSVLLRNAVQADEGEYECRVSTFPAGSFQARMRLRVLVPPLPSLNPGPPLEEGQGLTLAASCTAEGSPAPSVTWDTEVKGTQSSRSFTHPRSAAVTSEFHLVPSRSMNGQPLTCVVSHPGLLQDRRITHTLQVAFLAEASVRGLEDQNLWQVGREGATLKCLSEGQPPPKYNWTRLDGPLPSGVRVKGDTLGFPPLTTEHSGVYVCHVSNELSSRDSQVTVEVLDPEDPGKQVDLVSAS
Nature of the experiment: SPR sandwich assay, BCY11863 captured on biotinylated human CD137, soluble Nectin-4 ECD passed over, n = 3.

Sequence of Nectin-3 (3064-N3, R&D Systems) (Q9NQS3 58-404 limits assumed): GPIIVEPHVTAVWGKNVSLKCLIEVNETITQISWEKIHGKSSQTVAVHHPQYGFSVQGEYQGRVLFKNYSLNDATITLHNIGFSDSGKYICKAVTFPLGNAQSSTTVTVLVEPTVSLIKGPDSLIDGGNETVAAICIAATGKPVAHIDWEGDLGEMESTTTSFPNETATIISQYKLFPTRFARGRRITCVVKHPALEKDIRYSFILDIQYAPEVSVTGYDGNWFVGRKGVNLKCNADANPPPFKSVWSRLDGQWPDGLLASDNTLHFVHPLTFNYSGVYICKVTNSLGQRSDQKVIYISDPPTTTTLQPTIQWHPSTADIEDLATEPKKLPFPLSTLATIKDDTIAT

B1: heterotandem bicyclic peptide complex BCY11863 (peptide)
peptide 1: CP[1Nal][dD]CM[hArg]DWSTP[Hyp]WC
peptide 2: Ac-C[tBuAla]PE[dLys(PYA)]PYCFADPY[Nle]CA
modifications: linker I:1-I:5-I:15, II:1-II:8-II:15 via TATA; not fully specified (bridges); also: 1:2 complex: BCY8116 + 2x BCY8928
notes: also called Nectin-4/CD137 heterotandem
Usually Kd stands for the free concentration of one partner at which half of the binding sites on the other are occupied at equilibrium, for simple one-to-one binding. Regarding B1, the binding result in experiment [1], in experiment [2], in experiment [3], in experiment [4], in experiment [5] and in experiment [6] was “no binding (tested: 5000 nM)” throughout. The dissociation constant (Kd) in experiment [7] was found to be 5.2 nM; in experiment [8], 6.7 nM.
